Experimental data taken from patent US20230035798A1 (CAPELLA BIOSCIENCE, published 2023).

T1: recombinant human soluble LIGHT, amino acids 74-240 (R&D Systems 664-LI-025) (human, UniProt O43557 74-240)
T1 construct: range 74-240; also called 74-240 LIGHT; Soluble LIGHT 74-240
T1 chain: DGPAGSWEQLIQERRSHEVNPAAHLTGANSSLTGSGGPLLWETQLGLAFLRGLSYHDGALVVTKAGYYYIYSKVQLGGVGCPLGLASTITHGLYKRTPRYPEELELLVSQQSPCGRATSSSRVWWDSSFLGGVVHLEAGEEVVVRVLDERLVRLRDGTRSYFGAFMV


Key:
[1] = molecular target: T1, recombinant human soluble LIGHT, amino …; assay: SPR (BIAcore), mAb captured on anti-human Fc, soluble LIGHT in flow
Protocol: (§1) Real-time binding interactions between captured antibody (chimeric anti-membrane LIGHT monoclonal antibody) captured on a biosensor matrix via goat anti-human Fe IgG and recombinant soluble LIGHT were measured by surface plasmon resonance (SPR) using the BIAcore system (GE Healthcare) according to manufacturer's instructions and standard procedures. Briefly, soluble LIGHT was diluted in HBS running buffer (GE Healthcare) and aliquots were injected through the immobilized protein matrices at a flow rate of […]. BIAevaluation software was used to calculate association rate (ka), dissociation rate (kd) and affinity (KD).
(§2) The specificity of two lead anti-membrane LIGHT mAbs to soluble LIGHT was determined by BIAcore analysis and compared to the KD calculated from the EC50 values in Table 7 (results in Table 9). In brief, mAbs 3D12, 3B04 were compared to a mAb that binds both soluble and membrane LIGHT, F19, (F19 IgG4 mAb from EP2292663). An irrelevant anti-HEL mAb, 2A11, was used as a negative control. The mAbs were captured on an anti-human Fc mAb coated chip and soluble LIGHT was passed over the surface and the kinetic parameters were calculated using BIAcore 3000 software. The soluble LIGHT preparations used were amino acids 74-240 LIGHT (R&D Systems, 664-LI-025) and 64-240 LIGHT (Abcam, ab82123).

[2] = molecular target: T2, soluble LIGHT, amino acids 64-240 (Abcam ab82123) (UniProt O43557 64-240); assay: as above
T2 construct: range 64-240; bought protein; also called 64-240 LIGHT; Soluble LIGHT 64-240
Protocol: as §1, §2

[3] = molecular target: T3, human LIGHT (TNFSF14), full length, membrane-bound (214E allele) (human, UniProt O43557 1-240); assay: flow cytometry, mAb binding to EL4 cells stably expressing human LIGHT [upper panel]
T3 construct: also called membrane LIGHT; human membrane LIGHT

[4] = molecular target: T1, recombinant human soluble LIGHT, amino …; assay: native mass spectrometry, LIGHT:antibody 1:5
Protocol: The LIGHT protein (R&D Systems 664-LI-025) was solubilised in PBS buffer at a final concentration of 4 μM, whereas the mAbs were maintained at 20 μM in PBS. The samples were buffer exchanged into ammonium acetate pH 7.4 at different concentrations via a column with a cut-off of 40 kDa prior to mass spectrometry optimisation. […] Samples were stored at 4° C. and were used within one week. The antibodies were diluted to 1 μM prior to MSanalysis. For complex formation the LIGHT protein was incubated with each antibody separately in 1:5 ratio on ice and native mass measurements were performed 30 min after incubation.
Native mass spectroscopy was utilised to determine the ratio of mAb bound to native trimeric LIGHT. The measured mass of 3B04 (IgG4) was 147256±0.7 Da and the F19 anti-LIGHT mAb, (IgG4 mAb from EP2292663) was 147364±6.6 Da. Unlike the monoclonal antibodies the LIGHT protein was highly heterogeneous as expected, due to post-translational glycosylation. Two major populations of the light protein were recorded with measured masses of 68 kDa and 71 kDa. Both of these proteoforms are higher in mass than the theoretical trimeric mass of the protein, 62827.38 Da. […] In the case of LIGHT binding with 3B04, the stoichiometry can be assigned to one antibody per one LIGHT protein (masses of 219630±221 Da and 216960±380 were recorded).

Row | Binder | Kd [1] [nM] | koff [1] [s⁻¹] | kon [1] [M⁻¹ s⁻¹] | Kd [2] [nM] | koff [2] [s⁻¹] | kon [2] [M⁻¹ s⁻¹] | EC50 (read off the curve) [3] [nM] | stoichiometry, antibodies per LIGHT trimer [4]
1 | 3B04 (antibody, human IgG4, V domains shown, chimeric: mouse variable domains on human IgG4 HC (S-to-P and L-to-E at 248) and human CL; also called Parental 3B04; 3B04 chimeric) VH: QVQLQQPGAELVRPGASVTLSCKASGYTFTDYEMHWVKQTPVHGLEWIGEIDPETGDTAYSQKFKGKATLTADKSSSTAYMEFRSLTSEDSAVYYCSRETDYFFDYWGQGTTLTVSS VL: DIQMTQTPASLSASVGETVTITCGASENIYGALNWYQRKQGKSPQLLIYGATNLADGMSSRFSGSGSGRQYSLKISSLHPDDFATYYCQNVLTTPWTFGGGTKLEIKR | 15.7 | 0.00348 | 222000 | 13.8 | 0.00345 | 251000 | ~0.1 | 1 antibodies per LIGHT trimer
2 | 3D12 (antibody, human IgG4, V domains shown, chimeric: mouse variable domains on human IgG4 HC (S-to-P and L-to-E at 248) and human CL; also called Parental 3D12; 3D12 chimeric) VH: QVQLQQPGAELVRPGASVTLSCKASDYTFTDSEIHWVKQTPVHGLEWIGEIDPETGGTAYNQKFKGKATLTADKSSSTAYMELRSLTSEDSAVYYCSRETDYFFDYWGQGTTLTVSS VL: DIQMTQSPASLSASVGETVTITCGASENIYGALNWYQRKQGKSPQLLIYGATNLADGMSSRFSGSGSGRQYSLKISSLHPDDVATYYCQNVLSTPWTFGGGTKLEIKR | 14 | 0.00235 | 168000 | 10.7 | 0.00234 | 219000 | – | –
